Target: T1, MPER-TM(654-709) polypeptide (HIV-1, UniProt P04578)
T1 construct: also called MPER-TMD polypeptide; MPER-TMD construct
Experiment: flow cytometry on cells; stable HEK293T cells expressing the antigen; 10^6 cells; Fab-mVenus variants at 2 μg/mL, 30 min, RT, FACS buffer (PBS, 0.1% FBS); mVenus fluorescence read; Env cells with or without preincubation with Ig-mD1.22 (20 μg/mL, 30 min)
Conditions: one partner purified

| Binder | binding result |
| --- | --- |
| 10E8 Fab-mVenus S65C conjugated with Fus4 (Fab, V domains shown) VH: EVQLVESGGGLVKPGGSLRLSCSASGFDFDNAWMTWVRQPPGKGLEWVGRITGPGEGWSVDYAAPVEGRFTISRLNSINFLYLEMNNLRMEDSGLYFCARTGKYYDFWSGYPPGEEYFQDWGRGTLVTVSS VL: SYELTQETGVSVALGRTVTITCRGDSLRSHYASWYQKKPGQAPILLFYGKNNRPSGVPDRFSGCASGNRASLTISGAQAEDDAEYYCSSRDKSGSRLSVFGGGTKLTVL | binds |
| 10E8 Fab-mVenus S65C conjugated with Lin3 (Fab, V domains shown) VH: EVQLVESGGGLVKPGGSLRLSCSASGFDFDNAWMTWVRQPPGKGLEWVGRITGPGEGWSVDYAAPVEGRFTISRLNSINFLYLEMNNLRMEDSGLYFCARTGKYYDFWSGYPPGEEYFQDWGRGTLVTVSS VL: SYELTQETGVSVALGRTVTITCRGDSLRSHYASWYQKKPGQAPILLFYGKNNRPSGVPDRFSGCASGNRASLTISGAQAEDDAEYYCSSRDKSGSRLSVFGGGTKLTVL | binds |
